Laboratory results as given in patent EP2330122A1, “OFA/iLRP derived modified peptide” (Asklepios Kliniken Hamburg Gmbh, priority 2009, dated 2011).
Where no end group is shown, it is not given here.

Legend:
[1] = tested on: tumor cells from CLL patients; assay: 51Chromium release assay on tumor cells from CLL patients; type: cell-based, human; settings: CTL induction with the peptide
Procedure: For the induction of OFA/iLR peptide-specific CTL obtained from patients with CLL CDS^+ T cells were separated from PBMC using immunomagnetic beads (MACS®, Miltenyi, Bergisch-Gladbach, Germany) and co-cultured with autologous irradiated OFA/iLR peptide-pulsed CD8^+/CD4^+-depleted PBMC. CTL were weekly restimulated with autologous irradiated peptide-pulsed CD8^+ICD4^+-depleted PBMC in the presence of IL-2 (20IU/ml; CellConcepts, Weisskirch, Germany) and IL-7 (10ng/ml; PeproTech, Hamburg, Germany). After at least four weekly restimulations, CTL reactivity was determined in a conventional 4h ^51Chromium release assay. Antibody blocking experiments were performed as previously described (Zeis M, Siegel S, Schmitz M et al. Induction of cytotoxic T lymphocytes against hematologic neoplasms by survivin RNA-transfected dendritic cells. J Immunol. 2003; 170, 5391-5397).
T cells specific for HLA-A* 02-restricted iLR-ASK-a2 peptide were tested in a standard ^51Chromium release assay on tumor cells from CLL patients.

[2] = target: T1, HLA-A*0201 molecule on the TAP-deficient T2 cell line (human); assay: T2 binding assay
T1 construct: whole, on cells; MHC class I on T2 cells, loaded with peptide from outside; also called HLA-A2-molecule; HLA-A*02-molecule

[3] = target: T1, HLA-A*0201 molecule on the …; assay: T2 binding assay, compared with the native peptide SEQ ID No. 2

VAIENPADV [natural processed iLR66-74 peptide]
cytotoxicity obtained by stimulation of patients PBMC with the peptide [1]: no cytotoxicity

B1: native iLR66-74, naturally processed OFA/iLR peptide (VAIENPADV) (peptide)
peptide: VAIENPADV
notes: Synthetic 9-mer; also called naturally processed iLR peptide; naturally processed peptide
binding result [2]: binds

B2: iLR-ASK-A2 66-74 modified OFA/iLR peptide (VLIENPADV) (peptide)
peptide: VLIENPADV
notes: It is OFA/iLRP AA66-AA74 with the second residue changed from Ala to Leu; also called modified peptide
binding result [3]: binds
